# Data taken from US20250243286A1 (SIXPEAKS BIO, published 2025).
# Numbering of substitutions follows the chain as printed.
# T1: human ActRIIB (human, UniProt Q13705 19-137, limits assumed)
# T1 construct: antigen in MSD-SET; also called ACVR2B; ActR2B
# T1 sequence: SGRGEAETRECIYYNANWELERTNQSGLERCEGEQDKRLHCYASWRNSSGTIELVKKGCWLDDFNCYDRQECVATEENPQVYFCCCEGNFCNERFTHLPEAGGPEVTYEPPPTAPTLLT
# B1: Antibody Bebballesgmias (antibody, V domains shown)
# VH: QVQLVQSGAEVKKPGSSVKVSCKASGYKFTSSYINWVRQAPGQGLEWMGTINPVSGSTSYAQKFQGRVTITADTSTSTAYMELSSLRSEDTAVYYCARGGWFDYWGQGTLVTVSS
# VL: QSALTQPRSVSGSPGQSVTISCTGTSSDVGSYNYVNWYQQHPGKAPKLMIYGVSKRPRGVPDRFSGSKSGNTASLTISGLQAEDEADYYCGTFAGGSYYGVFGGGTKLTVL
# notes: full-length IgG
# B2: Antibody Soidawürstle (antibody, V domains shown)
# VH: B1 VH with K12R, K28T
# VL: B1 VL with Y34R, P57E, R58S, S97R
# notes: full-length IgG; also called Soidawüsrstel
# B3: Antibody Schwardamaga (antibody, V domains shown)
# VH: B1 VH with K28T, P53A
# VL: B1 VL with Y32A, L48P, K55R, R58S, S97K
# notes: full-length IgG
# B4: Antibody Ofaschlupfer (antibody, V domains shown)
# VH: B1 VH with K28T, P53A
# VL: B1 VL with Y32K, P57E, R58S, S97K
# notes: full-length IgG
# B5: Antibody Ochsamaulsalat (antibody, V domains shown)
# VH: B1 VH with S16A, K28T, P53A, I70M, A72R, T76I, S85R, E89D
# VL: B1 VL with R8A, V18I, Y32R, P57E, R58S, P61S, D62N, S97D
# notes: full-length IgG
# B6: Antibody Backstoikäs (antibody, V domains shown)
# VH: B1 VH with S16A, I70M, A72R, T76I, S85R, E89D
# VL: B1 VL with R8A, V18I, P61S, D62N
# notes: full-length IgG
# B7: Biiramooscht Fab (Fab, V domains shown)
# VH: B1 VH with S16A, K28T, I70M, A72R, T76I, S85R, E89D
# VL: B1 VL with R8A, V18I, P57E, R58S, P61S, D62N, S97A
# notes: Fab
# B8: Rippla Fab (Fab, V domains shown)
# VH: B1 VH with K12R, S16A, K28T, I70M, A72R, T76I, S85R, E89D
# VL: B1 VL with R8A, V18I, Y34R, P57E, R58S, P61S, D62N, S97R
# notes: Fab
# B9: Fasnetsküchla Fab (Fab, V domains shown)
# VH: B1 VH with S16A, K28T, P53A, I70M, A72R, T76I, S85R, E89D
# VL: B1 VL with R8A, V18I, Y32A, L48P, K55R, R58S, P61S, D62N, S97K
# notes: Fab
# Molecular target: T2, human ActRIIA (human, UniProt P27037 20-135, limits assumed)
# T2 construct: antigen in MSD-SET; also called ACVR2A; ActR2A
# Experiment: MSD-SET
# T2 sequence (P27037 20-135 limits assumed): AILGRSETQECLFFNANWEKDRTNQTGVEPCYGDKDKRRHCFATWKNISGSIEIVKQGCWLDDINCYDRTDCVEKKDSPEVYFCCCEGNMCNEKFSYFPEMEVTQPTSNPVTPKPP
row,Binder,Kd
1,B1,0.142 nM
2,B2,0.0342 nM
3,B3,0.0404 nM

# Molecular target: T1, human ActRIIB
# Experiment: MSD-SET
row,Binder,Kd
1,B1,0.0167 nM
2,B4,0.0029 nM
3,B2,0.0055 nM
4,B3,0.0129 nM

# Molecular target: T3, ActRIIA and ActRIIB (on TGFB/SMAD SBE Reporter HEK293 cells) (human)
# Experiment: cell-based or functional assay
Binder,"IC50, Activin SMAD RGA","IC50 fold difference to bimagrumab, Activin SMAD RGA","IC90, Activin SMAD RGA","IC90 fold difference to bimagrumab, Activin SMAD RGA","IC95, Activin SMAD RGA","IC95 fold difference to bimagrumab, Activin SMAD RGA","IC99, Activin SMAD RGA","IC99 fold difference to bimagrumab, Activin SMAD RGA"
B4,0.32 nM,1 fold,3.02 nM,2.1 fold,7.07 nM,21.8 fold,47.8 nM,147 fold
B2,0.16 nM,2 fold,1.81 nM,0.3 fold,4.84 nM,14.9 fold,19.3 nM,59.5 fold
B3,0.46 nM,0.7 fold,5.09 nM,0.8 fold,12.8 nM,39.3 fold,99 nM,305 fold

# Molecular target: T2, human ActRIIA
# Experiment: MSD-SET
# Remark: another data set of the same source
row,Binder,Kd
1,B5,0.02 nM

# Molecular target: T1, human ActRIIB
# Experiment: MSD-SET
# Remark: another data set of the same source
row,Binder,Kd
1,B5,0.01 nM

# Molecular target: T2, human ActRIIA
# Experiment: MSD-SET, preliminary
row,Binder,Kd
1,B1,0.142 nM
2,B2,0.0345 nM

# Molecular target: T1, human ActRIIB
# Experiment: MSD-SET, preliminary
row,Binder,Kd
1,B1,0.0167 nM
2,B4,0.0277 nM
3,B2,0.0508 nM
4,B3,0.0293 nM

# Molecular target: T3, ActRIIA and ActRIIB (on TGFB/SMAD SBE …)
# Experiment: cell-based or functional assay
# Remark: another data set of the same source
Binder,"IC50, Activin SMAD RGA","IC50, Myostatin SMAD RGA","IC50, myostatin inhibition (SMAD RGA)","IC90, Activin SMAD RGA","IC90, Myostatin SMAD RGA","IC50 fold difference to bimagrumab, Myostatin SMAD RGA","IC90 fold difference to bimagrumab, Activin SMAD RGA","IC90 fold difference to bimagrumab, Myostatin SMAD RGA","IC95, Activin SMAD RGA","IC95, Myostatin SMAD RGA"
B1,0.171 nM,0.181 nM,0.171 nM,2.88 nM,1.94 nM,,,,,
B6,0.18 nM,0.0875 nM,,3.71 nM,1.23 nM,,,,,
B4,,0.7 nM,,2.27 nM,14.4 nM,0.8 fold,4.1 fold,0.9 fold,4.97 nM,55.2 nM
B2,,0.13 nM,,2.16 nM,6.63 nM,4.3 fold,4.3 fold,2 fold,8.86 nM,35 nM
B3,,0.75 nM,,5.34 nM,14.7 nM,0.7 fold,1.8 fold,0.9 fold,14.2 nM,41.5 nM
B5,,0.653 nM,,2.51 nM,5.59 nM,,,,,

# Same assay, conditions: not given
Binder,"IC95 fold difference to bimagrumab, Activin SMAD RGA","IC95 fold difference to bimagrumab, Myostatin SMAD RGA","IC99, Activin SMAD RGA","IC99, Myostatin SMAD RGA","IC99 fold difference to bimagrumab, Activin SMAD RGA","IC99 fold difference to bimagrumab, Myostatin SMAD RGA"
B4,7.6 fold,1 fold,28.1 nM,1240 nM,29.6 fold,2.2 fold
B2,4.3 fold,1.6 fold,200 nM,2000 nM,4.1 fold,1.3 fold
B3,2.7 fold,1.3 fold,124 nM,425 nM,6.7 fold,6.3 fold

# Molecular target: T3, ActRIIA and ActRIIB (on TGFB/SMAD SBE …)
# Experiment: cell-based or functional assay
# Remark: another data set of the same source
Binder,"IC50, Activin SMAD RGA","IC50, Myostatin SMAD RGA","IC50 fold difference (Fab:IgG), Activin SMAD RGA","IC50 fold difference (Fab:IgG), Myostatin SMAD RGA"
B7,1.58 nM,2.09 nM,7.4 fold,7.9 fold
B8,0.4 nM,0.78 nM,4.6 fold,5.1 fold
B9,1.21 nM,2.32 nM,2.8 fold,4.8 fold
B5,0.43 nM,0.55 nM,,

# Molecular target: T2, human ActRIIA
# Experiment: MSD-SET, Fab KD over IgG KD
row,Binder,Fold difference (Fab:IgG)
1,B7,5.2 fold
2,B8,3.8 fold
3,B9,3.9 fold

# Molecular target: T1, human ActRIIB
# Experiment: MSD-SET, Fab KD over IgG KD
row,Binder,Fold difference (Fab:IgG)
1,B7,4.4 fold
2,B8,1.1 fold
3,B9,3.1 fold

# Molecular target: T1, human ActRIIB
# Experiment: affinity measurement
row,Binder,binding result
1,B6,binds

# Molecular target: T2, human ActRIIA
# Experiment: MSD-SET
# Remark: another data set of the same source
row,Binder,Kd
1,B2,0.0342 nM
2,B3,0.0404 nM

# Molecular target: T1, human ActRIIB
# Experiment: MSD-SET
# Remark: another data set of the same source
row,Binder,Kd
1,B4,0.0029 nM
2,B2,0.0055 nM
3,B3,0.0129 nM

# Molecular target: T2, human ActRIIA
# Experiment: MSD-SET
# Remark: another data set of the same source
row,Binder,Kd
1,B1,0.067 nM
2,B5,0.0232 nM

# Molecular target: T1, human ActRIIB
# Experiment: MSD-SET
# Remark: another data set of the same source
row,Binder,Kd
1,B1,0.0013 nM
2,B5,0.0082 nM

# Molecular target: T2, human ActRIIA
# Experiment: MSD-SET
# Remark: another data set of the same source
row,Binder,Kd
1,B7,0.145 nM
2,B8,0.157 nM
3,B9,0.114 nM
4,B5,0.02 nM

# Molecular target: T1, human ActRIIB
# Experiment: MSD-SET
# Remark: another data set of the same source
row,Binder,Kd
1,B7,0.021 nM
2,B8,0.006 nM
3,B9,0.026 nM
4,B5,0.01 nM
